Test results reported in paper PMC3236591, “Central domain deletions affect the SAXS solution structure and function of Yeast Hsp40 proteins Sis1 and Ydj1” (BMC Structural Biology, 2011).
Blank lines part the entries; values can stand above or below the binder they belong to.

Legend:
heated luciferase = target: T1, heated luciferase (UniProt P08659 1-550 = luciferase); assay: not stated; binding of Hsp40s to heated denatured luciferase as previously described (refs 15, 21); Sis1 binding set as standard (100%)
T1 construct: luciferase, heat-denatured, used as client protein; Heat-denatured in the assay; Firefly luciferase is surmised; also called heated denaturated luciferase; denatured luciferase

[1] = target: the molecule itself; assay: SAXS; 2.75 to 7.1 mg/mL protein in 25 mM Tris-HCl pH 7.5, 500 mM NaCl; molecular mass from I(0) against a BSA standard

T1 sequence (P08659 whole entry): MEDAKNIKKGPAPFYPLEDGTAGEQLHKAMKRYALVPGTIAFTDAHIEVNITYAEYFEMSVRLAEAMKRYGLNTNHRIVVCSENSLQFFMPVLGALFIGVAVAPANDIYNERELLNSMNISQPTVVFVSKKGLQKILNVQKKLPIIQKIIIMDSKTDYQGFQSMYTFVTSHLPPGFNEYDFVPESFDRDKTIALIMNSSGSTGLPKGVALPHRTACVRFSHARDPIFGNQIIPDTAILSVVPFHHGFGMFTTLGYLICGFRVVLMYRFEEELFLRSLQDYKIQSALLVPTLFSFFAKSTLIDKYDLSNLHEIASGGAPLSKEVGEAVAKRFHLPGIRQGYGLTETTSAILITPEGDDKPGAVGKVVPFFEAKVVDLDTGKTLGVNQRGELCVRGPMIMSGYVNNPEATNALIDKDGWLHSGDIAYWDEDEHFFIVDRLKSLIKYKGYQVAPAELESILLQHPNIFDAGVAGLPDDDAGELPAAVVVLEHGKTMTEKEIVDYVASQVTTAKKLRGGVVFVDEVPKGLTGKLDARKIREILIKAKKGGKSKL

B2: Sis1 (natural protein, yeast, UniProt P25294 1-352, looked up)
chain: MVKETKLYDLLGVSPSANEQELKKGYRKAALKYHPDKPTGDTEKFKEISEAFEILNDPQKREIYDQYGLEAARSGGPSFGPGGPGGAGGAGGFPGGAGGFSGGHAFSNEDAFNIFSQFFGGSSPFGGADDSGFSFSSYPSGGGAGMGGMPGGMGGMHGGMGGMPGGFRSASSSPTYPEEETVQVNLPVSLEDLFVGKKKSFKIGRKGPHGASEKTQIDIQLKPGWKAGTKITYKNQGDYNPQTGRRKTLQFVIQEKSHPNFKRDGDDLIYTLPLSFKESLLGFSKTIQTIDGRTLPLSRVQPVQPSQTSTYPGQGMPTPKNPSQRGNLIVKYKVDYPISLNDAQKRAIDENF
notes: Sis1, yeast Type II Hsp40, 352 residues (J-domain, G/F, G/M, CTDI, CTDII); also called Type II Hsp40; full length Sis1 protein; source: recombinant, purified (Macro-prep High S cation exchange, hydroxyapatite)
- stoichiometry N [1]: 2

B3: Sis1_Δ121-257 (natural protein, yeast, UniProt P25294 1-352, looked up)
chain: MVKETKLYDLLGVSPSANEQELKKGYRKAALKYHPDKPTGDTEKFKEISEAFEILNDPQKREIYDQYGLEAARSGGPSFGPGGPGGAGGAGGFPGGAGGFSGGHAFSNEDAFNIFSQFFGHPNFKRDGDDLIYTLPLSFKESLLGFSKTIQTIDGRTLPLSRVQPVQPSQTSTYPGQGMPTPKNPSQRGNLIVKYKVDYPISLNDAQKRAIDENF
notes: Sis1, yeast Type II Hsp40 (352 residues), residues 121 to 257 (G/M and CTDI) deleted; also called Sis1 G/M plus CTDI deletion mutant; source: E. coli BL21(DE3)pLys, purified (Macro-prep High S cation exchange, hydroxyapatite)
- percent of Sis1 binding to heated luciferase (heated luciferase): ~40%
- stoichiometry N [1]: 2

Further lines, with some results ahead:

- percent of Sis1 binding to heated luciferase (heated luciferase): ~40%
B1: Ydj1_Δ106-255 (natural protein)
chain: not shown
notes: Ydj1, yeast Type I Hsp40 (409 residues), residues 106 to 255 (ZFLR and CTDI) deleted; also called Ydj1 ZFLR plus CTDI deletion mutant; source: E. coli BL21(DE3), purified (Macro-prep High Q anion exchange, hydroxyapatite, Superdex 200 SEC)
- stoichiometry N [1]: 2

- percent of Sis1 binding to heated luciferase (heated luciferase): ~60%
B4: Sis1_Δ124-174 (natural protein, yeast, UniProt P25294 1-352, looked up)
chain: MVKETKLYDLLGVSPSANEQELKKGYRKAALKYHPDKPTGDTEKFKEISEAFEILNDPQKREIYDQYGLEAARSGGPSFGPGGPGGAGGAGGFPGGAGGFSGGHAFSNEDAFNIFSQFFGGSSTYPEEETVQVNLPVSLEDLFVGKKKSFKIGRKGPHGASEKTQIDIQLKPGWKAGTKITYKNQGDYNPQTGRRKTLQFVIQEKSHPNFKRDGDDLIYTLPLSFKESLLGFSKTIQTIDGRTLPLSRVQPVQPSQTSTYPGQGMPTPKNPSQRGNLIVKYKVDYPISLNDAQKRAIDENF
notes: Sis1, yeast Type II Hsp40 (352 residues), residues 124 to 174 (G/M region) deleted; also called Sis1 G/M deletion mutant; source: E. coli BL21(DE3)pLys, purified (Macro-prep High S cation exchange, hydroxyapatite)
- stoichiometry N [1]: 2
